Results as given in patent publication US5472841, “Methods for identifying nucleic acid ligands of human neutrophil elastase” (NeXstar Pharmaceuticals, Inc.).

Columns and labels:
[1] = biological target: T1, Human neutrophil elastase (Homo sapiens, UniProt P08246 P08246:30-267); experiment: filter; 6 mM KCl, 2 mM MgCl2, pH 7.0; conditions: tags: Athens Research and Technology
[2] = biological target: T1, Human neutrophil elastase; experiment: filter; 3'-truncated; conditions: tags: Athens Research and Technology
Source text: (§1) With the use of PCR primers specific for the 3' sequence of the 2'-NH₂ modified RNA ligand, the 3'-fixed regions for four different ligands (class I ligand 12, class II ligand 14, class III ligand 9 and class IV ligand 19) were eliminated.

Thrombin = Thrombin (UniProt P00734;P00734 P00734:328-363,P00734:364-622); experiment: filter; specificity control
[3] = biological target: T1, Human neutrophil elastase; experiment: filter; no KCl in binding buffer; conditions: tags: Athens Research and Technology; G4 predicted
[4] = biological target: T1, Human neutrophil elastase; experiment: filter; 3'-truncated; also FIG. 1; conditions: tags: Athens Research and Technology
Source text: as §1

[5] = biological target: T1, Human neutrophil elastase; experiment: competition; competes with ligand 24; conditions: tags: Athens Research and Technology; G4 predicted
[6] = biological target: T1, Human neutrophil elastase; experiment: filter; better at pH 5, Kd rises about 3-fold over two pH units; ligand 17 legend cites SEQ ID NO:1, sequence taken from Example 7; conditions: tags: Athens Research and Technology; G4 predicted
[7] = biological target: Basic fibroblast growth factor (bFGF) (UniProt P09038 P09038:143-288); experiment: filter; specificity control
Chain of Basic fibroblast growth factor (bFGF) (P09038 143-288, one chain of several): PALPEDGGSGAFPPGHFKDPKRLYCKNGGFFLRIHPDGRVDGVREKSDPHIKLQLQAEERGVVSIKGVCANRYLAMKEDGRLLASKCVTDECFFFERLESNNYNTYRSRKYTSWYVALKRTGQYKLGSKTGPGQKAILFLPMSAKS

T1 sequence (P08246 30-267, one chain of several): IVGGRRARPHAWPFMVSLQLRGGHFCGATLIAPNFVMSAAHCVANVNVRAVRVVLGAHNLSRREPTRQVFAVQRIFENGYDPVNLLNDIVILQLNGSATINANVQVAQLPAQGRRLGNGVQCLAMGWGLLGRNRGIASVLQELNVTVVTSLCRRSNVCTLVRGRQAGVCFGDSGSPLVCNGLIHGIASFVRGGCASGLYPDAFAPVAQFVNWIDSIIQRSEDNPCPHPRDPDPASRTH

B1: ligand 44 (class I) (ssRNA)
RNA: GGGAGCUCAGAAUAAACGCUCAAGAGUAGGCUUGACGCUGGGGGGGUAUGGCUUCGACUUGCGUUCGACAUGAGGCCCGGAUCCGGC
modifications: 2'-NH2 all pyrimidines
[1]
  Kd: 28 nM

B2: ligand 9 3'-truncated (ssRNA)
RNA: GGGAGCUCAGAAUAAACGCUCAAGGAAUGAAUGUGAUGAACAGGUGUCGGGGUGGAUGGGUGG
modifications: 2'-NH2 all pyrimidines
[2]
  Kd: 989 nM

B3: ligand 22 (class V) (ssRNA)
RNA: GGGAGCUCAGAAUAAACGCUCAAGGCCCUCUGAACCGUCUGGGCGUGGUUAGUGGGUGGCUUCGACAUGAGGCCCGGAUCCGGC
modifications: 2'-NH2 all pyrimidines
[1]
  Kd: 24 nM

B4: ligand 46 (class VI) (ssRNA)
RNA: GGGAGCUCAGAAUAAACGCUCAAUGGAUAGCGCUGCGUGACCGCGCUGGGGGGGUUGGCAGGGUUCGACAUGAGGCCCGGAUCCGGC
modifications: 2'-NH2 all pyrimidines
[1]
  Kd: 13 nM

B5: ligand 24 (class II) (ssRNA)
RNA: GGGAGCUCAGAAUAAACGCUCAAGGUAGACAUACGCCUUGGGGGGGUAUCAGGGUAUAUGGUAUUCGACAUGAGGCCCGGAUCCGGC
modifications: 2'-NH2 all pyrimidines
[1]; G4 predicted
  Kd: 11 nM
Thrombin
  Kd: 600 nM

B6: ligand 14 (class II) (ssRNA)
RNA: GGGAGCUCAGAAUAAACGCUCAAGGCAGACAUACGCCUUGGGGGGGUUUCAGGGUAUAUGGCAUUCGACAUGAGGCCCGGAUCCGGC
modifications: 2'-NH2 all pyrimidines
[1]
  Kd: 17 nM

B7: ligand 21 (class II; ligand 56 same SEQ ID) (ssRNA)
RNA: GGGAGCUCAGAAUAAACGCUCAAGGUAGACAUACGCCUUGGGGGGGUGUCAGGGUAUAUGGUAUUCGACAUGAGGCCCGGAUCCGGC
modifications: 2'-NH2 all pyrimidines
[1]; G4 predicted
  Kd: 39 nM
[3]
  Kd: 192 nM

B8: ligand 14 3'-truncated (ssRNA)
RNA: GGGAGCUCAGAAUAAACGCUCAAGGCAGACAUACGCCUUGGGGGGGUUUCAGGGUAUAUGGCA
modifications: 2'-NH2 all pyrimidines
[4]
  Kd: 14.5 nM

B9: ligand 19 3'-truncated (ssRNA)
RNA: GGGAGCUCAGAAUAAACGCUCAAUGCCCGGCAGUACUGCACGGCCUCGGGGGGGACCAGGGAG
modifications: 2'-NH2 all pyrimidines
[2]
  Kd: 648 nM

B10: ligand 26 (class III) (ssRNA)
RNA: GGGAGCUCAGAAUAAACGCUCAACGCCUUAGUCGCCAUAAUGCUGUCGGGGUGGAUAGGGUGGUUCGACAUGAGGCCCGGAUCCGGC
modifications: 2'-NH2 all pyrimidines
[1]
  Kd: 38 nM

B11: ligand 30 (class I; ligand 12 same SEQ ID) (ssRNA)
RNA: GGGAGCUCAGAAUAAACGCUCAAGAGUAGGCUUGACGCCUGGGGGGGUAUGGCUUCGACUGCGUUCGACAUGAGGCCCGGAUCCGGC
modifications: 2'-NH2 all pyrimidines
[5]
  binding result: binds

B12: ligand 19 (class IV) (ssRNA)
RNA: GGGAGCUCAGAAUAAACGCUCAAUGCCCGGCAGUACUGCACGGCCUCGGGGGGGACCAGGGAGUUCGACAUGAGGCCCGGAUCCGGC
modifications: 2'-NH2 all pyrimidines
[1]
  Kd: 8 nM

B13: ligand 28 (class IV) (ssRNA)
RNA: GGGAGCUCAGAAUAAACGCUCAAAUCGGAUAGCGCCGCGAUGGCGUCUGGGGGGGACCAGGGAUUCGACAUGAGGCCCGGAUCCGGC
modifications: 2'-NH2 all pyrimidines
[1]
  Kd: 57 nM

B14: ligand 3 (class VI) (ssRNA)
RNA: GGGAGCUCAGAAUAAACGCUCAAUGAGGUUGAGUAGUCGUGGUAAUGGCCACGGCUGGGGGGGUCGGUUCGACAUGAGGCCCGGAUCCGGC
modifications: 2'-NH2 all pyrimidines
[1]
  Kd: 28 nM

B15: DNA-17 (ssDNA)
DNA: TAGCGATACTGCGTGGGTTGGGGCGGGTAGGGCCAGCAGTCTCGTGCGGTACTTGAGCA
[6]
  binding result: binds

B16: ligand 12 3'-truncated (ssRNA)
RNA: GGGAGCUCAGAAUAAACGCUCAAGAGUAGGCUUGACGCCUGGGGGGGUAUGGCUUCGACUGCG
modifications: 2'-NH2 all pyrimidines
[2]
  Kd: 10 nM

B17: ligand 4 (class V) (ssRNA)
RNA: GGGAGCUCAGAAUAAACGCUCAACGGAUCGGGCGGUCGUCUAGCGGGAUGGCGUGCGGGUGGAUUCGACAUGAGGCCCGGAUCCGGC
modifications: 2'-NH2 all pyrimidines
[1]
  Kd: 172 nM

B18: ligand 9 (class III) (ssRNA)
RNA: GGGAGCUCAGAAUAAACGCUCAAGGAAUGAAUGUGAUGAACAGGUGUCGGGGUGGAUGGGUGGUUCGACAUGAGGCCCGGAUCCGGC
modifications: 2'-NH2 all pyrimidines
[7]
  Kd: 500 nM
